The supplement of paper PMC9112550, “Optimization of the antimicrobial peptide Bac7 by deep mutational scanning” (BMC Biology, 2022)

Tested on: Escherichia coli TOP10
Test: shrunken log2 fold change of peptide-encoding DNA abundance (4.5 h post-induction vs induction); higher = less antimicrobial activity (less host growth inhibition)
Settings: time post-induction: 4.5 h; library: site-saturation at positions 5, 18, 19, 20
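Further: peptides expressed intracellularly from a pBAD plasmid library in pooled LB shake-flask culture, induced with 0.3% L-arabinose, DNA abundance read by NGS, three biological replicates, DESeq2 with apeglm shrinkage.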

Sequence | shrunken log2 fold change
RRIRLRPPRLPRPRPRPGKEPRP | 0.0418
RRIRLRPPRLPRPRPRPGLRPRP | 0.234
RRIRLRPPRLPRPRPRPGMAPRP | 0.145
RRIRLRPPRLPRPRPRPGMLPRP | 0.0285
RRIRLRPPRLPRPRPRPGMNPRP | -0.72
RRIRLRPPRLPRPRPRPGPLPRP | 0.287
RRIRLRPPRLPRPRPRPGQAPRP | 0.39
RRIRLRPPRLPRPRPRPGRFPRP | 0.226
RRIRLRPPRLPRPRPRPGRIPRP | -0.136
RRIRLRPPRLPRPRPRPGSHPRP | 0.0329
RRIRLRPPRLPRPRPRPGSPPRP | 0.475
RRIRLRPPRLPRPRPRPGSSPRP | 0.0118
RRIRLRPPRLPRPRPRPGTIPRP | -0.689
RRIRLRPPRLPRPRPRPGTLPRP | 0.0174
RRIRLRPPRLPRPRPRPGTWPRP | 0.0714
RRIRLRPPRLPRPRPRPGVRPRP | 0.256
RRIRLRPPRLPRPRPRPGWKPRP | -0.0726
RRIRLRPPRLPRPRPRPHASPRP | -0.046
RRIRLRPPRLPRPRPRPHDEPRP | 0.0746
RRIRLRPPRLPRPRPRPHEDPRP | -0.682
RRIRLRPPRLPRPRPRPHFNPRP | -0.386
RRIRLRPPRLPRPRPRPHFQPRP | -0.131
RRIRLRPPRLPRPRPRPHFYPRP | -0.303
RRIRLRPPRLPRPRPRPHGGPRP | -0.234
RRIRLRPPRLPRPRPRPHIWPRP | -0.278

Sequence | shrunken log2 fold change
RRIRLRPPRLPRPRPRPHKGPRP | -0.0262
RRIRLRPPRLPRPRPRPHLEPRP | 0.0765
RRIRLRPPRLPRPRPRPHMTPRP | -0.466
RRIRLRPPRLPRPRPRPHQFPRP | 0.0562
RRIRLRPPRLPRPRPRPHQGPRP | -0.0634
RRIRLRPPRLPRPRPRPHQPPRP | 0.18
RRIRLRPPRLPRPRPRPHRHPRP | -0.361
RRIRLRPPRLPRPRPRPHSCPRP | -0.884
RRIRLRPPRLPRPRPRPHSFPRP | 0.0434
RRIRLRPPRLPRPRPRPHVKPRP | -0.333
RRIRLRPPRLPRPRPRPHVPPRP | 0.0978
RRIRLRPPRLPRPRPRPHWIPRP | -0.162
RRIRLRPPRLPRPRPRPIAHPRP | -0.058
RRIRLRPPRLPRPRPRPIANPRP | -0.00904
RRIRLRPPRLPRPRPRPIAWPRP | 0.0351
RRIRLRPPRLPRPRPRPIDEPRP | -0.178
RRIRLRPPRLPRPRPRPIFQPRP | -0.192
RRIRLRPPRLPRPRPRPIGFPRP | 0.0709
RRIRLRPPRLPRPRPRPIGNPRP | 0.0592
RRIRLRPPRLPRPRPRPIGSPRP | -0.0107
RRIRLRPPRLPRPRPRPIHFPRP | -0.77
RRIRLRPPRLPRPRPRPIHPPRP | -0.168
RRIRLRPPRLPRPRPRPIIHPRP | -0.186
RRIRLRPPRLPRPRPRPIIPPRP | -0.195
RRIRLRPPRLPRPRPRPIIWPRP | -0.000825

Sequence | shrunken log2 fold change
RRIRLRPPRLPRPRPRPIKQPRP | -0.00202
RRIRLRPPRLPRPRPRPIKSPRP | -0.202
RRIRLRPPRLPRPRPRPILRPRP | -0.156
RRIRLRPPRLPRPRPRPILTPRP | -0.281
RRIRLRPPRLPRPRPRPIMMPRP | -0.0614
RRIRLRPPRLPRPRPRPINHPRP | -0.654
RRIRLRPPRLPRPRPRPIPIPRP | -0.456
RRIRLRPPRLPRPRPRPIPPPRP | 0.0351
RRIRLRPPRLPRPRPRPIPQPRP | -0.0537
RRIRLRPPRLPRPRPRPIQNPRP | -0.403
RRIRLRPPRLPRPRPRPIQQPRP | -0.0102
RRIRLRPPRLPRPRPRPITHPRP | -0.24
RRIRLRPPRLPRPRPRPITIPRP | 0.0213
RRIRLRPPRLPRPRPRPITNPRP | -0.391
RRIRLRPPRLPRPRPRPIWWPRP | 0.94
RRIRLRPPRLPRPRPRPIYVPRP | -0.0939
RRIRLRPPRLPRPRPRPKAKPRP | 0.0705
RRIRLRPPRLPRPRPRPKAVPRP | -0.0189
RRIRLRPPRLPRPRPRPKCCPRP | -0.166
RRIRLRPPRLPRPRPRPKDRPRP | 0.0663
RRIRLRPPRLPRPRPRPKHKPRP | -0.103
RRIRLRPPRLPRPRPRPKHPPRP | -0.09
RRIRLRPPRLPRPRPRPKHYPRP | -0.406
RRIRLRPPRLPRPRPRPKINPRP | -0.396
RRIRLRPPRLPRPRPRPKLKPRP | 0.295

Sequence | shrunken log2 fold change
RRIRLRPPRLPRPRPRPKMFPRP | 0.0156
RRIRLRPPRLPRPRPRPKMGPRP | 0.0108
RRIRLRPPRLPRPRPRPKNGPRP | -0.203
RRIRLRPPRLPRPRPRPKNNPRP | -0.297
RRIRLRPPRLPRPRPRPKPHPRP | 0.207
RRIRLRPPRLPRPRPRPKQHPRP | -0.103
RRIRLRPPRLPRPRPRPKQMPRP | 0.0542
RRIRLRPPRLPRPRPRPKRDPRP | 0.43
RRIRLRPPRLPRPRPRPKRGPRP | 0.483
RRIRLRPPRLPRPRPRPKRIPRP | 0.109
RRIRLRPPRLPRPRPRPKRTPRP | 0.21
RRIRLRPPRLPRPRPRPKRYPRP | 0.0464
RRIRLRPPRLPRPRPRPKWDPRP | 0.184
RRIRLRPPRLPRPRPRPKYKPRP | -0.486
RRIRLRPPRLPRPRPRPKYYPRP | -1.1
RRIRLRPPRLPRPRPRPLADPRP | -0.0654
RRIRLRPPRLPRPRPRPLDIPRP | -0.15
RRIRLRPPRLPRPRPRPLDKPRP | -0.122
RRIRLRPPRLPRPRPRPLEYPRP | -0.116
RRIRLRPPRLPRPRPRPLFQPRP | -0.322
RRIRLRPPRLPRPRPRPLGMPRP | 0.0609
RRIRLRPPRLPRPRPRPLGYPRP | -1.79
RRIRLRPPRLPRPRPRPLHIPRP | -0.367
RRIRLRPPRLPRPRPRPLHMPRP | -0.112
RRIRLRPPRLPRPRPRPLHYPRP | -0.00799

Sequence | shrunken log2 fold change
RRIRLRPPRLPRPRPRPLKMPRP | 1.29
RRIRLRPPRLPRPRPRPLLHPRP | -0.0703
RRIRLRPPRLPRPRPRPLLLPRP | -0.00929
RRIRLRPPRLPRPRPRPLMLPRP | -0.257
RRIRLRPPRLPRPRPRPLNPPRP | -0.0831
RRIRLRPPRLPRPRPRPLPAPRP | 0.585
RRIRLRPPRLPRPRPRPLSMPRP | -0.163
RRIRLRPPRLPRPRPRPLSPPRP | 0.0444
RRIRLRPPRLPRPRPRPLSWPRP | 0.0186
RRIRLRPPRLPRPRPRPLTFPRP | -0.633
RRIRLRPPRLPRPRPRPLWCPRP | 0.159
RRIRLRPPRLPRPRPRPLWLPRP | -0.0303
RRIRLRPPRLPRPRPRPLYIPRP | -0.932
RRIRLRPPRLPRPRPRPLYSPRP | -1.1
RRIRLRPPRLPRPRPRPLYTPRP | -0.461
RRIRLRPPRLPRPRPRPMCEPRP | -0.0027
RRIRLRPPRLPRPRPRPMCGPRP | 0.0137
RRIRLRPPRLPRPRPRPMCRPRP | -0.0985
RRIRLRPPRLPRPRPRPMDDPRP | -0.117
RRIRLRPPRLPRPRPRPMEFPRP | -0.00133
RRIRLRPPRLPRPRPRPMEHPRP | -0.00579
RRIRLRPPRLPRPRPRPMFKPRP | -0.245
RRIRLRPPRLPRPRPRPMFQPRP | -1.11
RRIRLRPPRLPRPRPRPMGGPRP | 0.26
RRIRLRPPRLPRPRPRPMGIPRP | 0.0924

Sequence | shrunken log2 fold change
RRIRLRPPRLPRPRPRPMGKPRP | -0.353
RRIRLRPPRLPRPRPRPMGRPRP | 0.0605
RRIRLRPPRLPRPRPRPMHFPRP | 0.108
RRIRLRPPRLPRPRPRPMHTPRP | 0.25
RRIRLRPPRLPRPRPRPMKYPRP | -0.236
RRIRLRPPRLPRPRPRPMLLPRP | -0.56
RRIRLRPPRLPRPRPRPMQEPRP | 0.244
RRIRLRPPRLPRPRPRPMRYPRP | 0.0322
RRIRLRPPRLPRPRPRPMSAPRP | 0.344
RRIRLRPPRLPRPRPRPMTGPRP | -0.0115
RRIRLRPPRLPRPRPRPMVPPRP | 0.096
RRIRLRPPRLPRPRPRPMVYPRP | -0.0262
RRIRLRPPRLPRPRPRPMWKPRP | -0.0297
RRIRLRPPRLPRPRPRPMWYPRP | 0.0493
RRIRLRPPRLPRPRPRPNCYPRP | -0.422
RRIRLRPPRLPRPRPRPNEWPRP | -0.227
RRIRLRPPRLPRPRPRPNGKPRP | -0.0324
RRIRLRPPRLPRPRPRPNHIPRP | -0.671
RRIRLRPPRLPRPRPRPNHRPRP | 0.00288
RRIRLRPPRLPRPRPRPNHTPRP | -0.33
RRIRLRPPRLPRPRPRPNHVPRP | -0.449
RRIRLRPPRLPRPRPRPNIFPRP | 0.104
RRIRLRPPRLPRPRPRPNIHPRP | -0.621
RRIRLRPPRLPRPRPRPNIIPRP | -0.313
RRIRLRPPRLPRPRPRPNKHPRP | -0.43
